In patent US20220332804A1 (CSL INNOVATION, published 2022):

How the values were obtained:
Assay in all cases: SPR, antibody captured, C2 as analyte;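 also: biacore SPR at 37 °C, anti-C2 mAbs captured via goat anti-human IgG on CM5 chips, double-referenced sensorgrams fit to a 1:1 kinetic or steady-state model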
human C2 E556A = target: T1, human C2 E556A (human, UniProt P06681 21-752)
T1 sequence: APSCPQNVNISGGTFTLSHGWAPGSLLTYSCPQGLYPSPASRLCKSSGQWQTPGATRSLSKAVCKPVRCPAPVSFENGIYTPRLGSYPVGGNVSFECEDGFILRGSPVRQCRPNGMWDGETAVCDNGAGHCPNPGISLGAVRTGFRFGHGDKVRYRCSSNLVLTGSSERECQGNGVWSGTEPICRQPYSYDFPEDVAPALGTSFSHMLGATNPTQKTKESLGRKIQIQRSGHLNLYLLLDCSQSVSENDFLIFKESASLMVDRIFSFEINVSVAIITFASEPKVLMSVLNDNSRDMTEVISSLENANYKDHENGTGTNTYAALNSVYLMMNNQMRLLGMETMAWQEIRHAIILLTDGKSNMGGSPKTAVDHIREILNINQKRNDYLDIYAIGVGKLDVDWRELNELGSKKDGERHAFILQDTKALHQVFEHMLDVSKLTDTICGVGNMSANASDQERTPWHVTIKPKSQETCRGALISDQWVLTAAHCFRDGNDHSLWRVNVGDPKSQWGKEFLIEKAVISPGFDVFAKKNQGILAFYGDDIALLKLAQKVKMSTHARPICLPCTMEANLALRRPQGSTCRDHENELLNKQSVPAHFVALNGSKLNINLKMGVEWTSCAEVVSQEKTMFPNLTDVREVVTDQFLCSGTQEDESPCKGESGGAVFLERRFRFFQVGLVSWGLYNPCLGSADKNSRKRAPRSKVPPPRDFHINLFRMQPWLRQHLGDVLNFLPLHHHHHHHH

human C2 M316A = target: T2, human C2 M316A (human, UniProt P06681 21-752)
T2 sequence: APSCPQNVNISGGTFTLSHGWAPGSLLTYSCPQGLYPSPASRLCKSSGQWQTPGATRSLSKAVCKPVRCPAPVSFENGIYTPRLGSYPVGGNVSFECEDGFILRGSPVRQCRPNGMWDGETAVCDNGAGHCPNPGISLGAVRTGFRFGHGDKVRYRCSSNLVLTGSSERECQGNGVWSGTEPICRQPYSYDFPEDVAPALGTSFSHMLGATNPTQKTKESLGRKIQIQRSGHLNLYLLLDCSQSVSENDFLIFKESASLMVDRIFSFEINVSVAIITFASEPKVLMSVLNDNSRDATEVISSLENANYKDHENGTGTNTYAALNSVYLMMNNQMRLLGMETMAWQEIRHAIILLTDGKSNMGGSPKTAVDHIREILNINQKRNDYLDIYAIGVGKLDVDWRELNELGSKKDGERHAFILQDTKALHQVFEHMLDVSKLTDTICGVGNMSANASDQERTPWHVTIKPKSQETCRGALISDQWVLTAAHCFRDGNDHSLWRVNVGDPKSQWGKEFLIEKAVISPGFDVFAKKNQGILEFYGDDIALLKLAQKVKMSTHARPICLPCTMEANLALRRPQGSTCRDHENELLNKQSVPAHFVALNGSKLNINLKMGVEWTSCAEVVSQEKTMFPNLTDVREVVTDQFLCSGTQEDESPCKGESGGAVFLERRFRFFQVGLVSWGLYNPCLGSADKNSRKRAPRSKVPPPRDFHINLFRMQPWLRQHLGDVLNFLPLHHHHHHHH

human C2 K531A = target: T3, human C2 K531A (human, UniProt P06681 21-752)
T3 sequence: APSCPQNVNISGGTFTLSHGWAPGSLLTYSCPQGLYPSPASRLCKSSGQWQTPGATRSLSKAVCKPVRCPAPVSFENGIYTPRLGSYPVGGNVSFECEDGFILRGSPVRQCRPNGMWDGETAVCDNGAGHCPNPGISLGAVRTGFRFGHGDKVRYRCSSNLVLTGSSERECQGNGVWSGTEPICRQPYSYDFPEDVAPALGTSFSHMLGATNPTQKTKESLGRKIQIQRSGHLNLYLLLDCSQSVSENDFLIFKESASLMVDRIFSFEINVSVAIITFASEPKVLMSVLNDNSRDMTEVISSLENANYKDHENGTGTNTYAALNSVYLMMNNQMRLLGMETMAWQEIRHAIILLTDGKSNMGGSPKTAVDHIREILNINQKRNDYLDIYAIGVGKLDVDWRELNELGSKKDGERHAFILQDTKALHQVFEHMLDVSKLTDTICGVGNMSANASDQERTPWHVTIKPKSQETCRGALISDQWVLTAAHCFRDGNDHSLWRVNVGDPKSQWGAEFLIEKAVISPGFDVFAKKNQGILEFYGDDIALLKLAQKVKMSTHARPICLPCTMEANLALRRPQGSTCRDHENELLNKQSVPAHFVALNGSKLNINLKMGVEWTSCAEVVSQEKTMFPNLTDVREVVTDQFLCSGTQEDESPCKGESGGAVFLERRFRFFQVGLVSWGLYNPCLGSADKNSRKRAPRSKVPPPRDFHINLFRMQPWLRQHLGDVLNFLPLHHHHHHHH

human C2 E476A = target: T4, human C2 E476A (human, UniProt P06681 21-752)
T4 sequence: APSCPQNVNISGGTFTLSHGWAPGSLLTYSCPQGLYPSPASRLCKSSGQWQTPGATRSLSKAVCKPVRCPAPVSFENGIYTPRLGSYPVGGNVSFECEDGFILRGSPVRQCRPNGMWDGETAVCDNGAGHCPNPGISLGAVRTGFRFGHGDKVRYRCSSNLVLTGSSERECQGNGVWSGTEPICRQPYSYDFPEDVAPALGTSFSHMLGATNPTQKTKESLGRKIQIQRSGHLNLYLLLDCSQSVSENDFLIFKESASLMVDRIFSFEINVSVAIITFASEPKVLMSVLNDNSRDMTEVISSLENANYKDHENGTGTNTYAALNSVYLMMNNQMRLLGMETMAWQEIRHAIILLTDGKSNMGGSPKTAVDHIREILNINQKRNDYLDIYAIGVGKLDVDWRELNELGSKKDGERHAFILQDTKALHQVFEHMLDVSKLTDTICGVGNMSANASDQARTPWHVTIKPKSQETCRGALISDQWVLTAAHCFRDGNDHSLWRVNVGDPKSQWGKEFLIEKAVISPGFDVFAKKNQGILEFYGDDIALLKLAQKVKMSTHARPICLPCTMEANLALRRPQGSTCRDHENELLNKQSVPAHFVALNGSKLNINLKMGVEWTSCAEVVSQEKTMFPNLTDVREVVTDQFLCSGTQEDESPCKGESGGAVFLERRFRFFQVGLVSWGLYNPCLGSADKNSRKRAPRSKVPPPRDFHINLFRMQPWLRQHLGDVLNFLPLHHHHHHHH

B1: RF16-226 (antibody, human IgG4 S228P, lambda)
heavy: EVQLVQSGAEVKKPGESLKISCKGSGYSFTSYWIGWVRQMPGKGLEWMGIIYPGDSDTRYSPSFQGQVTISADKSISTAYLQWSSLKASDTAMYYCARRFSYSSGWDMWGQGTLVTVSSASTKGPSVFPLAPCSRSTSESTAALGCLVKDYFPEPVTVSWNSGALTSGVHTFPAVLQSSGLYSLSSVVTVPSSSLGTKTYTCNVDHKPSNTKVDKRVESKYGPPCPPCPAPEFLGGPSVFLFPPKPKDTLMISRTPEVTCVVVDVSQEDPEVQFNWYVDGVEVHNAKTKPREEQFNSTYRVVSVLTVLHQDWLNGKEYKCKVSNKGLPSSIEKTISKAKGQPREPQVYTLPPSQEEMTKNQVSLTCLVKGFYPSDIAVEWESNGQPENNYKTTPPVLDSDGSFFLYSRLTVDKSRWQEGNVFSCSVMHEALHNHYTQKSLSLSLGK
light: SYELTQPPSVSVSPGQTARITCSGDALTSKYVAWYQQKSGLAPLLVIYEDTRRPSGIPAKFSGSSSGSVATLTISGAHGDDEADYYCYSTDASGHQRVFGGGTKLTVLSQPKAAPSVTLFPPSSEELQANKATLVCLISDFYPGAVTVAWKADGSPVKAGVETTKPSKQSNNKYAASSYLSLTPEQWKSHRSYSCQVTHEGSTVEKTVAPTECS
notes: pH-dependent anti-C2 antibody from a phage display library; also called WT
Human C2 E556A
  Kd: 5.9 nM
Human C2 M316A
  Kd: 12.3 nM
Human C2 K531A
  Kd: 12.1 nM
Human C2 E476A
  Kd: 19.6 nM
